The Km is the substrate concentration at which the rate is half of its maximum. Broadly, the kcat is the number of substrate molecules converted per active site and unit of time at saturation. For orientation: kcat/Km means the turnover number divided by the Michaelis constant.

Substrate in this data set: O=CC(O)COP(=O)(O)O
Briefly: Michaelis-Menten kinetics of purified enzyme (Km), coupled alpha-GDH/NADH assay. Type of data set: biochemical, Giardia duodenalis.

B1: Giardia lamblia triosephosphate isomerase (GlTIM WT) (Giardia duodenalis) (protein)
chain: MPARRPFIGGNFKCNGSLDFIKSHVAAIAAHKIPDSVDVVIAPSAVHLSTAIAANTSKQLRIAAQNVYLEGNGAWTGETSVEMLQDMGLKHVIVGHSERRRIMGETDEQSAKKAKRALEKGMTVIFCVGETLDERKANRTMEVNIAQLEALGKELGESKMLWKEVVIAYEPVWSIGTGVVATPEQAEEVHVGLRKWFAEKVCAEGAQHIRIIYGGSANGSNCEKLGQCPNIDGFLVGGASLKPEFMTMIDILTKTRT
notes: recombinant His-tag/TEV GlTIM WT
On to B1, for which the Km amounted to 0.78 ± 0.06 mM, the kcat was determined as 7670 ± 267 s⁻¹ and the kcat/Km was 9.83e+06 M⁻¹ s⁻¹.

For the origin of these results see article PMC6586891, “On the molecular and cellular effects of omeprazole to further support its effectiveness as an antigiardial drug” (Scientific Reports, 2019).
